Reference: publication PMC6629641, “DNA translocation mechanism of the MCM complex and implications for replication initiation” (Nature Communications, 2019)

Tests used:
[1] = biological target: the molecule itself; experiment: crystal structure; SsoMCM-GGSGGS-ΔC with a 12-mer oligonucleotide, magnesium, ADP and beryllium fluoride; hanging drop, 18 °C, 50 mM MES pH 6.0, 100 mM NaCl, 20 mM MgCl2, 9% PEG 8000; 3.15 Å
[2] = biological target: the molecule itself; experiment: SEC; last gel-filtration step after removal of the SUMO tag and anion exchange; oligomer judged from the elution volume

B1: SsoMCM-GGSGGS-ΔC (enzyme, Sulfolobus solfataricus, UniProt Q9UXG1 1-612, looked up)
chain: MEIPSKQIDYRDVFIEFLTTFKGNNNQNKYIERINELVAYRKKSLIIEFSDVLSFNENLAYEIINNTKIILPILEGALYDHILQLDPTYQRDIEKVHVRIVGIPRVIELRKIRSTDIGKLITIDGILVKVTPVKERIYKATYKHIHPDCMQEFEWPEDEEMPEVLEMPTICPKCGKPGQFRLIPEKTKLIDWQKAVIQERPEEVPSGQLPRQLEIILEDDLVDSARPGDRVKVTGILDIKQDSPVKRGSRAVFDIYMKVSSIEVSGGSGGSSEEDEKKIKDLAKDPWIRDRIISSIAPSIYGHWELKEALALALFGGVPKVLEDTRIRGDIHILIIGDPGTAKSQMLQFISRVAPRAVYTTGKGSTAAGLTAAVVREKGTGEYYLEAGALVLADGGIAVIDEIDKMRDEDRVAIHEAMEQQTVSIAKAGIVAKLNARAAVIAAGNPKFGRYISERPVSDNINLPPTILSRFDLIFILKDQPGEQDRELANYILDVHSGKSTKNIIDIDTLRKYIAYARKYVTPKITSEAKNLITDFFVEMRKKSSETPDSPILITPRQLEALIRISEAYAKMALKAEVTREDAERAINIMRLFLESVGVDMESGKIDID
notes: minichromosome maintenance (MCM) protein of Sulfolobus solfataricus, cut after amino acid 612 (the C-terminal HTH domain deleted); Homohexamer; crystallised with a 12-mer ssDNA, Mg2+, ADP and ADP-BeF3; also called nearly full-length SsoMCM; MCM hexamer; source: E. coli BL21(DE3)-RIPL, purified (Ni-NTA, size-exclusion, Ulp1 cleavage, anion exchange, gel filtration); not shown: His6, N-terminal, …
With B1 the “stoichiometry N” value [1] was 6.

B2: wild-type full-length SsoMCM (enzyme, Sulfolobus solfataricus, UniProt Q9UXG1 1-686, looked up)
chain: MEIPSKQIDYRDVFIEFLTTFKGNNNQNKYIERINELVAYRKKSLIIEFSDVLSFNENLAYEIINNTKIILPILEGALYDHILQLDPTYQRDIEKVHVRIVGIPRVIELRKIRSTDIGKLITIDGILVKVTPVKERIYKATYKHIHPDCMQEFEWPEDEEMPEVLEMPTICPKCGKPGQFRLIPEKTKLIDWQKAVIQERPEEVPSGQLPRQLEIILEDDLVDSARPGDRVKVTGILDIKQDSPVKRGSRAVFDIYMKVSSIEVSQKVLDEVIISEEDEKKIKDLAKDPWIRDRIISSIAPSIYGHWELKEALALALFGGVPKVLEDTRIRGDIHILIIGDPGTAKSQMLQFISRVAPRAVYTTGKGSTAAGLTAAVVREKGTGEYYLEAGALVLADGGIAVIDEIDKMRDEDRVAIHEAMEQQTVSIAKAGIVAKLNARAAVIAAGNPKFGRYISERPVSDNINLPPTILSRFDLIFILKDQPGEQDRELANYILDVHSGKSTKNIIDIDTLRKYIAYARKYVTPKITSEAKNLITDFFVEMRKKSSETPDSPILITPRQLEALIRISEAYAKMALKAEVTREDAERAINIMRLFLESVGVDMESGKIDIDTIMTGKPKSAREKMMKIIEIIDSLAVSSECAKVKDILKEAQQVGIEKSNIEKLLTDMRKSGIIYEAKPECYKKV
notes: minichromosome maintenance (MCM) protein of Sulfolobus solfataricus, full length; also called pEE045.1; source: E. coli BL21(DE3)-RIPL, purified (Ni-NTA, size-exclusion, Ulp1 cleavage, anion exchange, gel filtration); not shown: His6, N-terminal, cleaved; SUMO, N-terminal, cleaved
In the case of B2, the “stoichiometry N” value [2] is reported as 6.
